Measurements from patent publication US20190040107.
Residue numbers refer to the chain shown, from its start. Names may count otherwise.

T1: astexin-3 ΔC2
T1 chain: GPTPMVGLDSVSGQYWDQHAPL

T2: unthreaded astexin-2 ΔC3
T2 chain: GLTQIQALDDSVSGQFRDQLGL

T3: astexin-2 ΔC4 (lassoed, threaded)
T3 chain: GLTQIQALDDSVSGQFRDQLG

T4: astexin-2 ΔC3 (lassoed, threaded)
T4 chain: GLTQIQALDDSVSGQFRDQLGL

T5: unthreaded astexin-2 ΔC4
T5 chain: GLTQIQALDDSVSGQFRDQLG

T6: astexin-3 ΔC1
T6 chain: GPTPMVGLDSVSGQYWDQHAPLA

T7: astexin-3 (lassoed, full-length)
T7 chain: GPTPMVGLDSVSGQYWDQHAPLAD

T8: astexin-1
T8 chain: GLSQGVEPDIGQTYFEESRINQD

B1: C-terminally His-tagged AtxE2 (protein)
chain: AAREAPPVTPEVLVRLADIGTMSASETTPLLSLSPDGRYVAFQVRQADPVTNLNVFRMVVKATDGATDAIDVDVGGEYLFWTIPSWGYARNAPSGANLTIQPRWSPSGTHLAYLRQDQGRVRVWRASVKGEGASPVIEDAYDIEDVQWLDDNTLIYSGRPGFVEAEAEIEREGRRGWVYDERFHPLTGARPRVLEPISIVYQVLDLKTGTRRAATPTEVARLREKPDPLRAMVGRTTFSVSRTDPQNINAPTTLVARRGEGEPVRCDEEACQNITRMWGDETANVLYFLRREGWASNEMALYRMPADALKPVRIWHATGLLQGCERQAKRLICAQESALQPRRLVTLNLTSGQMSPLYDPNPDLSRYRLPKVERLTLRNRNGIEVFSDLVLPPDYQLGTRLPLVIVQYSSRGFLRGGTGDENPILPLATAGFAVLSFHSPRSEASYQRFTSPIAQSKAEYSNWRNRWNILHTLEDLIDDLDRRGVIDPARVGLTGLSDGATTVHFGLINSHRFAAAVTSSCCTDSFTASVMNGPRISGALKAYGIETDQADDGPFWAATSFVVNASRLDTPLLIQSADEEYLGALPGFTALQQARKPVELIIYPNEHHVKWQPAHRLAVYNRTIDWFRFWLMDQSDPAPDKAAQYDRWRALRALRQKSPSPTPAP
B2: His-tagged S527A mutant of AtxE2 (protein)
chain: B1 chain with S497A

Legend:
[1] = biological target: T1, astexin-3 ΔC2
[2] = biological target: T2, unthreaded astexin-2 ΔC3
[3] = biological target: T3, astexin-2 ΔC4 (lassoed, threaded)
[4] = biological target: T4, astexin-2 ΔC3 (lassoed, threaded)
[5] = biological target: T5, unthreaded astexin-2 ΔC4
[6] = biological target: T6, astexin-3 ΔC1
[7] = biological target: T7, astexin-3 (lassoed, full-length)
[8] = biological target: T8, astexin-1

Protein | hydrolysis (HPLC retention time, MALDI MS) after 6 hours with 860 nM AtxE2 [1] | hydrolysis (HPLC retention time) in lysate extract treated with AtxE2 [2] | hydrolysis (HPLC retention time) of purified, heat-treated peptide with 424 nM AtxE2 [2] | hydrolysis (HPLC retention time, MALDI MS) after 6 hours with 860 nM AtxE2 [3] | hydrolysis (HPLC retention time) of purified peptide with 424 nM AtxE2 [4] | hydrolysis (HPLC retention time, MALDI MS) after 6 hours with 860 nM AtxE2 [4] | hydrolysis (HPLC retention time) in lysate extract treated with AtxE2 [5] | hydrolysis (HPLC retention time, MALDI MS) after 6 hours with 860 nM AtxE2 [6] | Km [7] | hydrolysis (HPLC retention time, MALDI MS) after 6 hours with 860 nM AtxE2 [7] | kcat [7] | kcat/Km [7] | hydrolysis (HPLC retention time, MS) after 6 hours with 860 nM AtxE2 [8] | activity toward astexin-3 in vitro [7]
B1 | an increase of 18 mass units for all astexin-2 and astexin-3 species, corresponding to the addition of a water molecule via the cleavage of a single amide bond | the retention times for these unthreaded species did not change after incubation with AtxE2 | only the threaded species exhibited a change in retention time consistent with hydrolysis of the isopeptide bond | an increase of 18 mass units for all astexin-2 and astexin-3 species, corresponding to the addition of a water molecule via the cleavage of a single amide bond | only the threaded species exhibited a change in retention time consistent with hydrolysis of the isopeptide bond | an increase of 18 mass units for all astexin-2 and astexin-3 species, corresponding to the addition of a water molecule via the cleavage of a single amide bond | the retention times for these unthreaded species did not change after incubation with AtxE2 | an increase of 18 mass units for all astexin-2 and astexin-3 species, corresponding to the addition of a water molecule via the cleavage of a single amide bond | Km equal to 131 µM | an increase of 18 mass units for all astexin-2 and astexin-3 species, corresponding to the addition of a water molecule via the cleavage of a single amide bond | kcat equal to 0.38 s^-1 | kcat/Km value for AtxE2 to be 2.9×10^3 M^-1 s^-1 | the retention time of astexin-1 did not shift after incubation with AtxE2 and no molecular weight difference was observed in the MS | –
B2 | – | – | – | – | – | – | – | – | – | – | – | – | – | AtxE2 S527A had no activity toward astexin-3
